# Measured values from the Human Domainome abundance scans (Beltran et al. 2025).
# ± gives the uncertainty stated by the source.
# B1: RUN and FYVE domain-containing protein 1, residues 639 to 698; numbered along this chain, Q96T51 (parent)
# chain: WLKDDEATHCRQCEKEFSISRRKHHCRNCGHIFCNTCSSNELALPSYPKPVRVCDSCHTL
# Variants of: B1
# Test: abundance fitness (aPCA) (normalised: wild type 0, dead -1); higher = more abundant; growth selection in yeast, the domain comes from the species named
# Settings: Homo sapiens
row,Variant,abundance fitness
1,WLKDDEATHCRQCEKEFSISRRKHHCRYCGHIFCNTCSSNELALPSYPKPVRVCDSCHTL [N28Y],-0.283 ± 0.065
2,WLKDDEATHCRQCEKEFSISRRKHHCRLCGHIFCNTCSSNELALPSYPKPVRVCDSCHTL [N28L],-0.342 ± 0.043
3,WLKDDEATHCRQCEKEFSISRRKHHCRDCGHIFCNTCSSNELALPSYPKPVRVCDSCHTL [N28D],-0.19 ± 0.08
4,WLKDDEATHCRQCEKEFSISRRKHHCRCCGHIFCNTCSSNELALPSYPKPVRVCDSCHTL [N28C],0.058 ± 0.09
5,WLKDDEATHCRQCEKEFSISRRKHHCRVCGHIFCNTCSSNELALPSYPKPVRVCDSCHTL [N28V],-0.285 ± 0.044
6,WLKDDEATHCRQCEKEFSISRRKHHCRTCGHIFCNTCSSNELALPSYPKPVRVCDSCHTL [N28T],-0.306 ± 0.059
7,WLKDDEATHCRQCEKEFSISRRKHHCRMCGHIFCNTCSSNELALPSYPKPVRVCDSCHTL [N28M],-0.252 ± 0.05
8,WLKDDEATHCRQCEKEFSISRRKHHCRKCGHIFCNTCSSNELALPSYPKPVRVCDSCHTL [N28K],-0.202 ± 0.066
9,WLKDDEATHCRQCEKEFSISRRKHHCRPCGHIFCNTCSSNELALPSYPKPVRVCDSCHTL [N28P],-0.244 ± 0.069
10,WLKDDEATHCRQCEKEFSISRRKHHCRGCGHIFCNTCSSNELALPSYPKPVRVCDSCHTL [N28G],-0.1 ± 0.044
11,WLKDDEATHCRQCEKEFSISRRKHHCRWCGHIFCNTCSSNELALPSYPKPVRVCDSCHTL [N28W],-0.13 ± 0.043
12,WLKDDEATHCRQCEKEFSISRRKHHCRRCGHIFCNTCSSNELALPSYPKPVRVCDSCHTL [N28R],-0.176 ± 0.034
13,WLKDDEATHCRQCEKEFSISRRKHHCRFCGHIFCNTCSSNELALPSYPKPVRVCDSCHTL [N28F],-0.177 ± 0.12
14,WLKDDEATHCRQCEKEFSISRRKHHCRICGHIFCNTCSSNELALPSYPKPVRVCDSCHTL [N28I],-0.261 ± 0.065
15,WLKDDEATHCRQCEKEFSISRRKHHCRACGHIFCNTCSSNELALPSYPKPVRVCDSCHTL [N28A],-0.046 ± 0.037
16,WLKDDEATHCRQCEKEFSISRRKHHCRSCGHIFCNTCSSNELALPSYPKPVRVCDSCHTL [N28S],-0.099 ± 0.038
17,WLKDDEATHCRQCEKEFSISRRKHHCRHCGHIFCNTCSSNELALPSYPKPVRVCDSCHTL [N28H],0.05 ± 0.064
18,WLKDDEATHCRQCEKEFSISRRKHHCRQCGHIFCNTCSSNELALPSYPKPVRVCDSCHTL [N28Q],-0.147 ± 0.054
19,WLKDDEATHCRQCEKEFSISRRKHHCRNCYHIFCNTCSSNELALPSYPKPVRVCDSCHTL [G30Y],-0.56 ± 0.1
20,WLKDDEATHCRQCEKEFSISRRKHHCRNCAHIFCNTCSSNELALPSYPKPVRVCDSCHTL [G30A],-0.392 ± 0.072
21,WLKDDEATHCRQCEKEFSISRRKHHCRNCFHIFCNTCSSNELALPSYPKPVRVCDSCHTL [G30F],-0.945 ± 0.17
22,WLKDDEATHCRQCEKEFSISRRKHHCRNCEHIFCNTCSSNELALPSYPKPVRVCDSCHTL [G30E],-0.239 ± 0.067

row,Variant,abundance fitness
1,WLKDDEATHCRQCEKEFSISRRKHHCRNCHHIFCNTCSSNELALPSYPKPVRVCDSCHTL [G30H],-0.428 ± 0.11
2,WLKDDEATHCRQCEKEFSISRRKHHCRNCSHIFCNTCSSNELALPSYPKPVRVCDSCHTL [G30S],-0.503 ± 0.045
3,WLKDDEATHCRQCEKEFSISRRKHHCRNCWHIFCNTCSSNELALPSYPKPVRVCDSCHTL [G30W],-0.235 ± 0.038
4,WLKDDEATHCRQCEKEFSISRRKHHCRNCVHIFCNTCSSNELALPSYPKPVRVCDSCHTL [G30V],-0.764 ± 0.062
5,WLKDDEATHCRQCEKEFSISRRKHHCRNCPHIFCNTCSSNELALPSYPKPVRVCDSCHTL [G30P],-0.754 ± 0.093
6,WLKDDEATHCRQCEKEFSISRRKHHCRNCDHIFCNTCSSNELALPSYPKPVRVCDSCHTL [G30D],-0.414 ± 0.099
7,WLKDDEATHCRQCEKEFSISRRKHHCRNCCHIFCNTCSSNELALPSYPKPVRVCDSCHTL [G30C],-0.453 ± 0.075
8,WLKDDEATHCRQCEKEFSISRRKHHCRNCNHIFCNTCSSNELALPSYPKPVRVCDSCHTL [G30N],-1.04 ± 0.17
9,WLKDDEATHCRQCEKEFSISRRKHHCRNCKHIFCNTCSSNELALPSYPKPVRVCDSCHTL [G30K],-1.17 ± 0.1
10,WLKDDEATHCRQCEKEFSISRRKHHCRNCTHIFCNTCSSNELALPSYPKPVRVCDSCHTL [G30T],-0.77 ± 0.072
11,WLKDDEATHCRQCEKEFSISRRKHHCRNCMHIFCNTCSSNELALPSYPKPVRVCDSCHTL [G30M],-0.264 ± 0.046
12,WLKDDEATHCRQCEKEFSISRRKHHCRNCRHIFCNTCSSNELALPSYPKPVRVCDSCHTL [G30R],-0.428 ± 0.039
13,WLKDDEATHCRQCEKEFSISRRKHHCRNCQHIFCNTCSSNELALPSYPKPVRVCDSCHTL [G30Q],-0.326 ± 0.055
14,WLKDDEATHCRQCEKEFSISRRKHHCRNCGAIFCNTCSSNELALPSYPKPVRVCDSCHTL [H31A],-0.204 ± 0.046
15,WLKDDEATHCRQCEKEFSISRRKHHCRNKGHIFCNTCSSNELALPSYPKPVRVCDSCHTL [C29K],-1.11 ± 0.23
16,WLKDDEATHCRQCEKEFSISRRKHHCRNAGHIFCNTCSSNELALPSYPKPVRVCDSCHTL [C29A],-1.03 ± 0.091
17,WLKDDEATHCRQCEKEFSISRRKHHCRNNGHIFCNTCSSNELALPSYPKPVRVCDSCHTL [C29N],-0.942 ± 0.16
18,WLKDDEATHCRQCEKEFSISRRKHHCRNVGHIFCNTCSSNELALPSYPKPVRVCDSCHTL [C29V],-0.904 ± 0.07
19,WLKDDEATHCRQCEKEFSISRRKHHCRNEGHIFCNTCSSNELALPSYPKPVRVCDSCHTL [C29E],-0.666 ± 0.068
20,WLKDDEATHCRQCEKEFSISRRKHHCRNHGHIFCNTCSSNELALPSYPKPVRVCDSCHTL [C29H],-1.25 ± 0.26
21,WLKDDEATHCRQCEKEFSISRRKHHCRNTGHIFCNTCSSNELALPSYPKPVRVCDSCHTL [C29T],-0.818 ± 0.1
22,WLKDDEATHCRQCEKEFSISRRKHHCRNSGHIFCNTCSSNELALPSYPKPVRVCDSCHTL [C29S],-1.01 ± 0.1
